The source of these data is patent publication US20130109048A1, “METHOD FOR IN-VITRO MONITORING OF NEURONAL DISORDERS AND USE THEREOF” (ECOLE POLYTECHNIQUE FEDERALE DE LAUSANNE (EPFL), priority 2010, published 2013).

“Also recorded” adds a separate entry of the source.

Data set [1] has as its system rat primary cortical neurons. Description: MEA recording of spontaneous electrical activity (population bursts), TrkB inhibitor experiments. The class given is cell-based. The note with it: K252a 10 nM or 100 nM; 30 min recordings 45 min and 24 h after addition; cultures at 14-15 DIV. The method, then: Cortical cells were prepared and cultured as described previously (Van Pelt et al., 2004, IEEE Trans. Biomed. Eng., 51: 2051-2062). Cells were plated on multielectrode arrays (MEAs) and/or culture dishes, with prior surface coating by polyethylenimine (10 mg/ml, Fluka) and laminin (0.02 mg/ml, Gibco) in Neurobasal medium (MEAs) or poly-L-lysine (0.01%) in water (culture dishes), respectively, which allow the cells to readily attach to the surface and extend neurites. Plating density was 1′500 cells/mm^2 for MEAs, allowing for quick network formation and high multichannel electrophysiological recordings efficiency. A lower density of 500 cells/mm^2 was used for culture dishes, to facilitate cell counting and morphological analysis. […]
After 5 min of accommodation time following the mounting of each MEA inside the recording setup, spontaneous electrical activity from the cultured neurons was detected, amplified, and recorded at each of the 60 substrate extracellular electrodes simultaneously for 30 min at 20 kHz/channel. Recorded traces consisted in electric voltage signals whose sudden small large amplitude fluctuations are known to be produced by the nerve impulse discharges emitted by neurons growing in close proximity to the substrate electrodes that detect them extracellularly, directly related to the firing of action potentials by the neurons in the proximity of each electrode. […]

Data set [2] deals with rat primary cortical neurons. The data set is described as follows: Neuronal viability by counts of NeuN-positive nuclei. It counts as cell-based. The note with it: cultures treated with K252a 10 nM or 100 nM. The method, then:
Cultures were washed with PBS and fixed in 4% paraformaldehyde (Fluka/Sigma, Buchs, Switzerland) or in methanol (Merck, Germany) for PSD95 (Post-synaptic density protein of 95 kDa) staining for 10 min at 4° C. Cultures were incubated with NeuN antibody which reacts with fox-3 (1:500, Chemicon, Temecula, Calif.) or 2B4 antibody which reacts with huntingtin (1:500 Millipore, Zug, Switzerland), antibody which reacts with postsynaptic density protein of 95 kDa (PSD95) (Sans et al., 2000, J. Neurosci. 20:1260-71) (1:200, Affinity Bioreagents, Golden, Colo.) and antibody which reacts neuronal class III beta-tubulin Tuj1 (Jepsen et al., 2000, Cell 102(6): 753-763) (1:2000, Covance, Emerville, Calif.) in PBS containing 10% normal goat serum (NGS, Gibco, Invitrogen, Basel, Switzerland) and 0.1% Triton X-100 (TX, Fluka, Sigma, Buchs, Switzerland). Cultures were rinsed three times in PBS and then incubated for 1 hour with fluorescent goat anti-mouse secondary antibodies (for NeuN: 1:1000 Cy3-conjugated antibody from Jackson Immunoresearch Laboratories, WestGrove, Pa.; for 2B4: 1:1000 Alexa Fluor® 488-conjugated antibodies from Invitrogen, Basel, Switzerland, for Tuj1: 1:1000 Alexa Fluor® 594-conjugated antibody from Invitorgen, Basel, Switzerland). Where indicated, cultures were stained with Hoechst 33342 dye (Invitrogen, Basel, Switzerland). […]

For data set [3], the system named is htt171-82Q-expressing cortical cells. The data set is described as follows: MEA recording of spontaneous electrical activity in Huntington's disease cell model with BDNF. It counts as cell-based, rat. The following applies: BDNF 50 ng/ml added twice weekly. The text has this:
Cells modeling in-vitro HD-related cortical dysfunction were engineered for use in a method according to the invention for showing that the effects of molecular changes on synaptic changes in cortical microcircuits exposed to mutant htt fragments could be measured by a method according to the invention. To this end, cortical cells E16-E19 Wistar rat embryos (Charles River, France) were engineered by lentiviral gene transfer using Human Immunodeficiency Virus Type 1 (HIV-1)-derived vectors to express the first 171 amino acids of normal or mutated htt under the control of a tetracycline response element-containing promoter as described in Rudinskiy et al., 2009, J. Neurochem., 111: 460-472 (FIGS. 1A,B) to achieve high transduction efficiency and high levels of transgene expression in rat primary cortical neurons following the protocol below.
Plasmids encoding the first 171 amino acids of mutated htt (htt171-82Q) (FIG. 6, SEQ ID NO: 14) or wild-type htt (htt171-18Q) (FIG. 6, SEQ ID NO: 15) under the control of a tetracycline-regulated element promoter, or the tetracycline-regulatable transactivator (tTA1) under the control of a phosphoglycerate kinase promoter were used to prepare self-inactivating lentiviral vectors (FIG. 1A) as described previously (Regulier et al., 2003, Hum. Mol. Genet., 12: 2827-2836). Lentiviral particles were re-suspended in phosphate-buffered saline (PBS)+1% bovine serum albumin and the particle content of viral batches was assessed by p24 ELISA (RETROtek, Gentaur, Paris, France) (Viral titering involves capture of p24 viral protein from the sample on a microtiter plate and detection with a second anti-p24 antibody and visualization via a colorimeteric horseradish-generated product detected at 450 nm) Cells were plated as described below. On the day following cell plating, cultures were infected with lentiviruses at ratios of 150 ng p24/1000 cells (tTA1) and 120 ng p24/1000 cells (htt171-82Q or htt171-18Q) (FIG. 1B).
Cortical cells were prepared and cultured as described previously (Van Pelt et al., 2004, IEEE Trans. Biomed. Eng., 51: 2051-2062). Cells were plated on multielectrode arrays (MEAs) and/or culture dishes, with prior surface coating by polyethylenimine (10 mg/ml, Fluka) and laminin (0.02 mg/ml, Gibco) in Neurobasal medium (MEAs) or poly-L-lysine (0.01%) in water (culture dishes), respectively, which allow the cells to readily attach to the surface and extend neurites. Plating density was 1′500 cells/mm^2 for MEAs, allowing for quick network formation and high multichannel electrophysiological recordings efficiency. A lower density of 500 cells/mm^2 was used for culture dishes, to facilitate cell counting and morphological analysis. Medium containing Neurobasal, 2% B-27 supplement (GIBCO, Invitrogen Corporation, ref 17504) and 10% horse serum (from GIBCO, Invitrogen Corporation, ref. 16050-130) was changed three times per week by removing 0.7 ml and adding 1 ml of fresh medium. Where indicated, recombinant human BDNF (R&D Systems, Minneapolis, Minn., USA) at a concentration of 50 ng/ml was added to the medium twice a week starting from in vitro day 4.
Commercial MEAs with planar TiN substrate electrodes (MultichannelSystems, Reutlingen, Germany) such as described in Potter and De Marse, 2001, above were employed for recording over long-term experiments the spontaneous electrical activity of mammalian neurons, maintained under healthy conditions ex-vivo. […]

For data set [4] the test system is unchanged. Description: Counting of PSD95-positive plasma membrane subdomains (punctae) by immunostaining. The class given is cell-based, rat. The note with it: BDNF 50 ng/ml added twice weekly; htt171-82Q cells. The method, then: Cultures were washed with PBS and fixed in 4% paraformaldehyde (Fluka/Sigma, Buchs, Switzerland) or in methanol (Merck, Germany) for PSD95 (Post-synaptic density protein of 95 kDa) staining for 10 min at 4° C. Cultures were incubated with NeuN antibody which reacts with fox-3 (1:500, Chemicon, Temecula, Calif.) or 2B4 antibody which reacts with huntingtin (1:500 Millipore, Zug, Switzerland), antibody which reacts with postsynaptic density protein of 95 kDa (PSD95) (Sans et al., 2000, J. Neurosci. 20:1260-71) (1:200, Affinity Bioreagents, Golden, Colo.) and antibody which reacts neuronal class III beta-tubulin Tuj1 (Jepsen et al., 2000, Cell 102(6): 753-763) (1:2000, Covance, Emerville, Calif.) in PBS containing 10% normal goat serum (NGS, Gibco, Invitrogen, Basel, Switzerland) and 0.1% Triton X-100 (TX, Fluka, Sigma, Buchs, Switzerland). […]
The synaptic status was investigated in htt171-82Q- and htt171-18Q-expressing cells. Numbers of PSD95-positive structures was quantified as described above as an indicator of postsynaptic specializations, which comprise zones where neurotransmitter receptors, particularly glutamate receptors, are clustered.

[5] abbreviates: compared to non-BDNF-treated htt171-82Q sister cultures, 23 days in vitro.

For the molecule `COC(=O)[C@@]1(O)C[C@H]2O[C@]1(C)n1c3ccccc3c3c4c(c5c6ccccc6n2c5c31)C(=O)NC4` [TrkB inhibitor, K252a], the “PB (population burst) firing” value in data set [1] was “dose- and time-dependent loss of PB firing”. In addition, the “neuronal viability (NeuN counts)” value in data set [2] is given as “without influencing neuronal viability”.

B1: BDNF: recombinant human brain-derived neurotrophic factor (R&D Systems) (protein, UniProt P23560 19-247, looked up)
Neurotrophic factor BDNF …: APMKEANIRGQGGLAYPGVRTHGTLESVNGPKAGSRGLTSLADTFEHVIEELLDEDQKVRPNEENNKDADLYTSRVMLSSQVPLEPPLLFLLEEYKNYLDAANMSMRVRRHSDPARRGELSVCDSISEWVTAADKKTAVDMSGGTVTVLEKVPVSKGQLKQYFYETKCNPMGYTKEGCRGIDKRHWNSQCRTTQSYVRALTMDSKKRIGWRFIRIDTSCVCTLTIKRGR
In the case of B1, in data set [3] (setting [5]), the PB frequencies entry was “significantly increased PB frequencies” and the “inter-burst intervals (IBIs)” value is “decreased IBIs”. For the same molecule, in data set [3] (htt171-82Q cells), the PB duration distribution result is “extended to both the IBI and duration distributions”; the “size of individual PBs (numbers of individual action potentials)” value is listed as “did not completely restore the size of individual PBs”. In addition, the “number of total spikes” value in data set [3] (htt171-82Q cells, 30 min recording) is given as “number of total spikes remained lower”. Further, the “PSD95-positive bouton-like plasma membrane subdomains (punctae)” value in data set [4] is listed as “increase PSD95-positive boutons; also recorded: reversed by BDNF treatment”.
